Laboratory results from paper doi:10.1101/2021.10.20.465166.

Tests used:
Test in all cases: EMSA
C/EBPα p42 (full length) = C/EBPα p42 (full length) (UniProt P49715 1-358)
C/EBPα bZIP domain = C/EBPα bZIP domain (UniProt P49715 282-345)
C/EBPα p30 = C/EBPα p30 (UniProt P49715-3 1-239)
C/EBPα p30, sequence (P49715 120-358): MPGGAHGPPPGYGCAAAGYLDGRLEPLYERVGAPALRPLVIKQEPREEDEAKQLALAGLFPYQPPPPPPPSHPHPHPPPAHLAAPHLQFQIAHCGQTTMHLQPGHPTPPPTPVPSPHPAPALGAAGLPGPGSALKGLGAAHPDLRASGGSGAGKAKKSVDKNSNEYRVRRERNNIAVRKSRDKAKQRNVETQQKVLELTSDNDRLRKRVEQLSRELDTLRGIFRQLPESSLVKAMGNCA

C/EBPα p42 (full length), sequence (P49715 whole entry, the tested form may be a part): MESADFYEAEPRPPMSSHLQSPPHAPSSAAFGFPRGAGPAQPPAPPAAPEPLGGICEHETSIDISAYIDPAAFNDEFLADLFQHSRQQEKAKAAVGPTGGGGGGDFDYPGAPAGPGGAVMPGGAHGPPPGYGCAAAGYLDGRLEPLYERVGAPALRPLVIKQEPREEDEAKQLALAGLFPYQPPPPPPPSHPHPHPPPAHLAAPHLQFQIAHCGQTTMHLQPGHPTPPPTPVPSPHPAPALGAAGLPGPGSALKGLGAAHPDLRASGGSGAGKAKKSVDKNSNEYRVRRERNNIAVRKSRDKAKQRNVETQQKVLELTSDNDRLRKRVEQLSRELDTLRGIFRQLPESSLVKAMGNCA
C/EBPα bZIP domain, sequence (P49715 282-345): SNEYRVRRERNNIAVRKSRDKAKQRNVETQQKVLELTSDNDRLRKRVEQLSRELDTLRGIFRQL

Binder | binding result (C/EBPα p42 (full length)) | binding result (C/EBPα bZIP domain) | binding result (C/EBPα p30)
CCCCCACCCAGCCAGGCCAAC (ssRNA) [PU.1 intron 4 RNA (PU.1i4)] | binds | no binding | binds
UUCCCACUCACCCAGCACCC (ssRNA) [CTBP1 intron 2 RNA (CTBP1i2)] | binds | no binding | binds
GGGACCCGGUUCCCACUCACCCAGC (structured_RNA) [CTBP1 intron 2 negative RNA (CTBP1i2N)] | no binding | – | no binding
